Test results reported in article PMC3680600 (Journal of the American Chemical Society, 2013).
No end group written: not given here.

Columns and labels:
[1] = target: NF-κB Essential Modulator (NEMO), full-length recombinant human protein (residues 2–419) with five cysteine-to-alanine substitutions (human) (UniProt Q9Y6K9); assay: fluorescence polarisation
[2] = target: full-length recombinant human NEMO (Homo sapiens, UniProt Q9Y6K9, C11A/C131A/C167A/C76A/C95A); assay: Fluorescence anisotropy; conditions: KD2 competition assay vs KD1 direct binding assay

| Kd [1] [µM] | KD2 of unlabeled peptide relative to KD1 of FITC-IKKβ [2] | Substance |
| --- | --- | --- |
| > 0.87 |  | MBP-IKKβ-His(C716S) D738A (from UniProt O14920 701-745) (domain or fragment) |
| > 0.87 |  | MBP-IKKβ-His(C716S) L708A (from UniProt O14920 701-745) (domain or fragment) |
| > 0.87 |  | MBP-IKKβ-His(C716S) L719A (from UniProt O14920 701-745) (domain or fragment) |
| > 0.87 |  | MBP-IKKβ-His(C716S) L742A (from UniProt O14920 701-745) (domain or fragment) |
| > 0.87 |  | MBP-IKKβ-His(C716S) W739A (from UniProt O14920 701-745) (domain or fragment) |
| > 0.87 |  | MBP-IKKβ-His(C716S) W741A (from UniProt O14920 701-745) (domain or fragment) |
|  | ~ 4 fold | PAKKSEELVAEAHNLCTLLENAIQDTVREQDQSFTALDWSWLQTE [IKKβ(701–745)] |
| 0.015 |  | WT MBP-IKKβ-His (from UniProt O14920 701-745) (domain or fragment) |
| 11 |  | cleaved IKKβ peptide D738A (from UniProt O14920 701-745) |
| 2.7 |  | cleaved IKKβ peptide L708A (from UniProt O14920 701-745) |
| 21 |  | cleaved IKKβ peptide L719A (from UniProt O14920 701-745) |
| 5.5 |  | cleaved IKKβ peptide L742A (from UniProt O14920 701-745) |
| 35 |  | cleaved IKKβ peptide W739A (from UniProt O14920 701-745) |
| 9.3 |  | cleaved IKKβ peptide W741A (from UniProt O14920 701-745) |
